Drawing on US20070111260A1, this text covers Percentage of positively stained cell for one molecule.

The target in experiment [1] is Human αvβ3 integrin (Chemicon, #CC1018), biotinylated (human) (UniProt P06756). The experiment can be described thus: flow cytometry, 293A cells displaying the ScFvFc, αVβ3-biotin 1 ug/ml, APC-streptavidin.
The target is the same in experiment [2]. In words: flow cytometry, 293A cells displaying the ScFvFc, αVβ3-biotin 5 ug/ml, APC-streptavidin.
Experiment [3] shares this target. In words: flow cytometry, 293A cells displaying the ScFvFc, αVβ3-biotin 10 ug/ml, APC-streptavidin.
Experiment [4] has the same target. In words: flow cytometry, 293A cells displaying the ScFvFc, αVβ3-biotin 0.5 ug/ml, APC-streptavidin.
Experiment [5] has the same target. The experiment can be described thus: flow cytometry, 293A cells displaying the ScFvFc, αVβ3-biotin 2.5 ug/ml, APC-streptavidin.

Human αvβ3 integrin (Chemicon, #CC1018), biotinylated (human), sequence (P06756 31-1048 limits assumed, chain 1 of 2): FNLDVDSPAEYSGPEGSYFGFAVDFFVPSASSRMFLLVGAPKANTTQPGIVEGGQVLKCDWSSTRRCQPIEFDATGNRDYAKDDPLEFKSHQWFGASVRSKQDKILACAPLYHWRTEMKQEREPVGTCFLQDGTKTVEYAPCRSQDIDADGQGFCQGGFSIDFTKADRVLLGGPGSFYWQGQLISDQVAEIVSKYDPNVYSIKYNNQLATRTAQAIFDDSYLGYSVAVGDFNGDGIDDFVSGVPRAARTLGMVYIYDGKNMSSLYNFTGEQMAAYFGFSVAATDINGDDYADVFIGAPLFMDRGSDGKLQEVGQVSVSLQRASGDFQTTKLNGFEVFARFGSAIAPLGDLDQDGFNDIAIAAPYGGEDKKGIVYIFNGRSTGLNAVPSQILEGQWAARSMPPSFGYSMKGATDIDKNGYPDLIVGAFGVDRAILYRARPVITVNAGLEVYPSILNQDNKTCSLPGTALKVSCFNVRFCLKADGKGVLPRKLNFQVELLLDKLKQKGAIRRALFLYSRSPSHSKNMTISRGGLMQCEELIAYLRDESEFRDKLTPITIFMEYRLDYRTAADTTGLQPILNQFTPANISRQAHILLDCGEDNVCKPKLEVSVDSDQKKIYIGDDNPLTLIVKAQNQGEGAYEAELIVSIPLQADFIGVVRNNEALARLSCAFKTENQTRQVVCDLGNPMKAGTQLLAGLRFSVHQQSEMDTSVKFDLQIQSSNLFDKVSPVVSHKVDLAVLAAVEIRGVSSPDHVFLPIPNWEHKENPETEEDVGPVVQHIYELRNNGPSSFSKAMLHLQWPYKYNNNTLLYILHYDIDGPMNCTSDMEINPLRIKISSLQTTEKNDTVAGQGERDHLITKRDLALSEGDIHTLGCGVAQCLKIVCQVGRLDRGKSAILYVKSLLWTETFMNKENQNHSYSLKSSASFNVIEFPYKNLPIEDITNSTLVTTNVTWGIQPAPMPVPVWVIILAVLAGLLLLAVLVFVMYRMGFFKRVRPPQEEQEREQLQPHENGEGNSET
Human αvβ3 integrin (Chemicon, #CC1018), biotinylated (human), sequence (P05106 27-788 limits assumed, chain 2 of 2, further chain): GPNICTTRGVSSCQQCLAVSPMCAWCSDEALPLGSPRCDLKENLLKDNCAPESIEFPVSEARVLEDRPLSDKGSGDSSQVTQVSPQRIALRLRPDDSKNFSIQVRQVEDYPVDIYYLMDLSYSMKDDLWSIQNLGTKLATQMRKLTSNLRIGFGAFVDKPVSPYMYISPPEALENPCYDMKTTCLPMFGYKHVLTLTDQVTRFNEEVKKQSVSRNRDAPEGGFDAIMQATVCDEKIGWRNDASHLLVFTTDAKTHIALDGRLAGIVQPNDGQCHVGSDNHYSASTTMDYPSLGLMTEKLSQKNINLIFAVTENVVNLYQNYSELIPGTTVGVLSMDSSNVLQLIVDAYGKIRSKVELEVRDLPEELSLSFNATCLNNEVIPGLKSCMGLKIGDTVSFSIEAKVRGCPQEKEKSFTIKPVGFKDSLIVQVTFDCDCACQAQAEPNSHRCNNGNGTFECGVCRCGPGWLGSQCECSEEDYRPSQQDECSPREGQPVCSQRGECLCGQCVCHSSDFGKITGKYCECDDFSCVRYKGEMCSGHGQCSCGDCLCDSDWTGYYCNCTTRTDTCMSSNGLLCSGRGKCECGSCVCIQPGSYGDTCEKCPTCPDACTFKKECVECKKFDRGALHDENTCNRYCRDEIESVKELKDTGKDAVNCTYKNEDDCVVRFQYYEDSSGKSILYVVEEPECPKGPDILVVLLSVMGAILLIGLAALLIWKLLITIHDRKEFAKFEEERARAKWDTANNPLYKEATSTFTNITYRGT

B1: Abegrin anti-αvβ3 integrin ScFvFc, displayed on 293A cells (scFv, INN chains, looked up, V domains shown)
VH: QVQLVESGGGVVQPGRSLRLSCAASGFTFSSYDMSWVRQAPGKGLEWVAKVSSGGGSTYYLDTVQGRFTISRDNSKNTLYLQMNSLRAEDTAVYYCARHLHGSFASWGQGTTVTVSS
VL: EIVLTQSPATLSLSPGERATLSCQASQSISNFLHWYQQRPGQAPRLLIRYRSQSISGIPARFSGSGSGTDFTLTISSLEPEDFAVYYCQQSGSWPLTFGGGTKVEIK
modifications: scFv-Fc displayed on 293A cell surface
Take B1: the Percentage of positively stained cell in experiment [1] was found to be 83%; in experiment [2] it was 84%; in experiment [3], 90%; in experiment [4], 81%; in experiment [5], 85%.
